Experimental findings from US20220273711A1 (University of Washington, published 2022) are described below.

Assay [1] addresses T1, Her2-eGFP (hsHER2_ecd_tm-eGFP) (human (hs)).
T1 construct: Expressed on K562 cells by lentiviral transduction; also called Her2-eGFP on K562 cells
Description: flow cytometry; Bim-DARPin pre-complexed with Bcl2-AF594, 3-fold dilutions from 300 nM to 0.4 nM, mixed K562 cells expressing Her2-eGFP, EGFR-iRFP, both or neither. The procedure: (§1) FIG. 16. DARPin binder affinity measured by flow cytometry. Anti-Her2 or anti-EGFR DARPins with N-terminal fusions to Bim were pre-complexed with Bcl2-AF594 and serially diluted 3-fold from 300 nM down to 0.4 nM. This dilution series was used to label a mixed population of K562 cells expressing Her2-eGFP, EGFR-iRFP, both, or neither for one hour at room temperature in a 50 μl incubation volume. The cells were then washed in PBS supplemented with 0.1% bovine serum albumin and analyzed on an LSRII flow cytometer.
A general note: In flow cytometry, cells or beads pass a laser one at a time.

Assay [2] concerns the target T2, EGFR-iRFP (hsEGFR_ecd_tm-iRFP) (human (hs)).
T2 construct: Expressed on K562 cells by lentiviral transduction; also called EGFR-iRFP on K562 cells
Described as above. The protocol: as §1

For orientation: Kd means a measure of binding affinity in units of concentration.

T2 sequence (chain, as listed by the source limits assumed): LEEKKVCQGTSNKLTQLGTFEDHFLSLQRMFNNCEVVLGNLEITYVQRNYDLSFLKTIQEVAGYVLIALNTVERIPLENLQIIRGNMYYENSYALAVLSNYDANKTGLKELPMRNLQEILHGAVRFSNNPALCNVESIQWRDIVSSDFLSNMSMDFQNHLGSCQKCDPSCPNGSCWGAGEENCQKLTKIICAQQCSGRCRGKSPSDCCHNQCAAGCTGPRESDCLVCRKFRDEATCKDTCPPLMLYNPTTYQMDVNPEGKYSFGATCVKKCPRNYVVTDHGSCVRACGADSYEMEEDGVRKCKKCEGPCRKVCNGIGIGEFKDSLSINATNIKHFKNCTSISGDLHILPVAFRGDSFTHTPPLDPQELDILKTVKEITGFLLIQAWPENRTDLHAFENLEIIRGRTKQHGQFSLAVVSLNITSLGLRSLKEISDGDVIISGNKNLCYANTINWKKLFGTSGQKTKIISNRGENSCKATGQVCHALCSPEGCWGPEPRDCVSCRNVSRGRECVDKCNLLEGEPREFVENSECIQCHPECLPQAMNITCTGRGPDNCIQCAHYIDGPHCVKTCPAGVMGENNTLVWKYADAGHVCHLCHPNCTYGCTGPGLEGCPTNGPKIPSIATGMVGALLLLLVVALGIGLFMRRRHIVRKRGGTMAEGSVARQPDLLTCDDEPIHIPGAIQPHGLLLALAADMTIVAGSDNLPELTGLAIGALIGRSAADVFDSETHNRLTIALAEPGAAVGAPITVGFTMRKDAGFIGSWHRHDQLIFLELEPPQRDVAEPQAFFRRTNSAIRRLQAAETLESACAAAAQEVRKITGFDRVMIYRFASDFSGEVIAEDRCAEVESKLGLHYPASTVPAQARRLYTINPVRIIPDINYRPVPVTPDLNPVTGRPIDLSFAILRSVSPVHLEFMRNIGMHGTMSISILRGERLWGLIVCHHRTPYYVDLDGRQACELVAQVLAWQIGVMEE

B1: Bim_Her2 (Her2 DARPin tagged with N-terminal Bim peptide) (designed binder)
chain: MGSHHHHHHGSGSENLYFQGSTDEIWIAQELRRIGDEFNAYYASGSGDLGKKLLEAARAGQDDEVRILMANGADVNAKDEYGLTPLYLATAHGHLEIVEVLLKNGADVNAVDAIGFTPLHLAAFIGHLEIAEVLLKHGADVNAQDKFGKTAFDISIGNGNEDLAEILQKLN
notes: also called Anti-Her2 DARPin with N-terminal fusion to Bim; Bim-DARPin
For the molecule B1, in assay [1], the Kd was roughly 10 nM.

B2: Bim_EGFR (EGFR DARPin tagged with N-terminal Bim peptide) (designed binder)
chain: MGSHHHHHHGSGSENLYFQGSTDEIWIAQELRRIGDEFNAYYASGSGDLGKKLLEAARAGQDDEVRILMANGADVNADDTWGWTPLHLAAYQGHLEIVEVLLKNGADVNAYDYIGWTPLHLAADGHLEIVEVLLKNGADVNASDYIGDTPLHLAAHNGHLEIVEVLLKHGADVNAQDKFGKTAFDISIDNGNEDLAEILQKLN
notes: also called anti-EGFR DARPin with N-terminal fusion to Bim; Bim-DARPin
B2 gave a Kd in assay [2] of roughly 10 nM.
